Data reported in paper PMC7407159.

Molecular target: T1, histidine tagged full length homo sapiens mitofusin 1 (hsMfn1) (human), Q8IWA4
T1 chain: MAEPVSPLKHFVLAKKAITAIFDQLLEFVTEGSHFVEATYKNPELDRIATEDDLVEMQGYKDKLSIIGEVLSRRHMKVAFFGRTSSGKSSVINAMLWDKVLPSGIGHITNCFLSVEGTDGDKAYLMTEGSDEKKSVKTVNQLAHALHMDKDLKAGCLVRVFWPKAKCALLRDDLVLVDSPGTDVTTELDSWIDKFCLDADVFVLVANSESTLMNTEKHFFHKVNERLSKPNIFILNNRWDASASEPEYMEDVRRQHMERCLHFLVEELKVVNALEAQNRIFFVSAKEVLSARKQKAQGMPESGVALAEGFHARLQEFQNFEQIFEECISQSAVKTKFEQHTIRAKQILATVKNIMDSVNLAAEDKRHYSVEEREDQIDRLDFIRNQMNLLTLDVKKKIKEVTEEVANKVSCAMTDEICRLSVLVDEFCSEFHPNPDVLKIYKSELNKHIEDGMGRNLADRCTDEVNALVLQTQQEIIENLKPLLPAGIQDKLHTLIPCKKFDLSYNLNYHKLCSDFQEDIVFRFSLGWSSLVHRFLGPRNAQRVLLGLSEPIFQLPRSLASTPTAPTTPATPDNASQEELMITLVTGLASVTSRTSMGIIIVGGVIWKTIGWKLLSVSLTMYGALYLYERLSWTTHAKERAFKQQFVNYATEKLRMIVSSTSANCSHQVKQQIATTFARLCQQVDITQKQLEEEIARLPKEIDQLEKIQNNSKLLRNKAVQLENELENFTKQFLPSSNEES
Assay: vesicle adhesion (shape of adhered GUV doublets by confocal microscopy), adhesion strength fitted to a cooperative binding model; His-Mfn1 (detergent resistant fraction of Mfn1-IMVs) bound by its histidine tag to POPC/DOGS-NTA GUVs with 10, 15, 20 and 25 mol% DOGS-NTA; 10 mM GDP, 2.5 mM …; 22 °C; Eadh against [NTA] fitted to Equation (6); two-dimensional binding equilibrium constant for planar membranes, Mfn1 with …
Conditions: remark: other sources report otherwise

- two-dimensional binding equilibrium constant for planar membranes (K2D' of Equation 6, printed as KD') (nm^2 per molecule): 0.1
B1: histidine tagged full length homo sapiens mitofusin 1 (hsMfn1), Q8IWA4 1-741 (natural protein)
chain: T1 chain
